Experimental data: US20230097015A1 (SEOUL NATIONAL UNIVERSITY R AND DB FOUNDATION, published 2023)

Experiments:
MlnC COM^A-AAL = biological target: T1, MlnC COM^A-AAL
T1 chain: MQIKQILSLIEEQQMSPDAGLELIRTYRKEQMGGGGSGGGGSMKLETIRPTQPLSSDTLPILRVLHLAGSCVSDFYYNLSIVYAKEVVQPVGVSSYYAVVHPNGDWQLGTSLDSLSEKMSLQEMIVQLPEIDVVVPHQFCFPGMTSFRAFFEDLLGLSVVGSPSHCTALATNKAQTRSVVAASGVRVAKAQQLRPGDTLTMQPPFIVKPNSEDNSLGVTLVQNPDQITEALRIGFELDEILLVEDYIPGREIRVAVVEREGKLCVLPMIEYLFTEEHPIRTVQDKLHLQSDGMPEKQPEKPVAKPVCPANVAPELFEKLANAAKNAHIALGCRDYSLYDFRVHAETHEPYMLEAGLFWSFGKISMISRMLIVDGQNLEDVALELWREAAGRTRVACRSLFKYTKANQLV

4CL-MlnB COM^D = biological target: T2, 4CL-MlnB COM^D (Bacillus amyloliquefaciens, UniProt Q42524 1-561); experiment: analytical SEC-FPLC of a 1:1 mixture and native PAGE
T2 construct: Unlabelled protein as used in SEC/native PAGE and in the two-step naringenin reaction; also called 4-coumarate-CoA ligase fused to MlnB COM donor domain; not shown: N-terminal His-tag from pET15b vector
T2 sequence: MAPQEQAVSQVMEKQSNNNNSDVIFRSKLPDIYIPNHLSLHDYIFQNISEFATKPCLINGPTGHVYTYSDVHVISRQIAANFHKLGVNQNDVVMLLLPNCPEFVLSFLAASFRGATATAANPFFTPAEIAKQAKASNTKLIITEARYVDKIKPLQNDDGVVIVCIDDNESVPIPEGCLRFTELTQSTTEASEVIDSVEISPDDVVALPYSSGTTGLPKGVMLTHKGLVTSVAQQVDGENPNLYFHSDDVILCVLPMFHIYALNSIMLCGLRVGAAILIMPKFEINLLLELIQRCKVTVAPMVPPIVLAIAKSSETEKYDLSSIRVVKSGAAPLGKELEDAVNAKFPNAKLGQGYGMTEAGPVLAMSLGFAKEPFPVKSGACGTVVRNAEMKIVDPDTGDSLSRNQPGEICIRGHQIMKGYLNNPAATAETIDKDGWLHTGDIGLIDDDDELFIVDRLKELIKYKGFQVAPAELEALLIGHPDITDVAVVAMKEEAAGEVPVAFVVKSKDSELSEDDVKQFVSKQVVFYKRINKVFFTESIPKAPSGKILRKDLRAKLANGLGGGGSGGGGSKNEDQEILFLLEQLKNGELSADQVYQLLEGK

[1] = biological target: T3, Cy3-labeled 4CL-MlnB COM^D (Bacillus amyloliquefaciens, UniProt Q42524 1-561, Cy3-NHS ester linked to naturally occurring lysine residues (positions not stated)); experiment: Cy3/Cy5 FRET, three channels
T3 construct: Dye-labelled form used in the three-channel FRET analysis; also called 4CL-MlnB COMD labeled with Cy3; not shown: N-terminal His-tag from pET15b vector
T3 sequence: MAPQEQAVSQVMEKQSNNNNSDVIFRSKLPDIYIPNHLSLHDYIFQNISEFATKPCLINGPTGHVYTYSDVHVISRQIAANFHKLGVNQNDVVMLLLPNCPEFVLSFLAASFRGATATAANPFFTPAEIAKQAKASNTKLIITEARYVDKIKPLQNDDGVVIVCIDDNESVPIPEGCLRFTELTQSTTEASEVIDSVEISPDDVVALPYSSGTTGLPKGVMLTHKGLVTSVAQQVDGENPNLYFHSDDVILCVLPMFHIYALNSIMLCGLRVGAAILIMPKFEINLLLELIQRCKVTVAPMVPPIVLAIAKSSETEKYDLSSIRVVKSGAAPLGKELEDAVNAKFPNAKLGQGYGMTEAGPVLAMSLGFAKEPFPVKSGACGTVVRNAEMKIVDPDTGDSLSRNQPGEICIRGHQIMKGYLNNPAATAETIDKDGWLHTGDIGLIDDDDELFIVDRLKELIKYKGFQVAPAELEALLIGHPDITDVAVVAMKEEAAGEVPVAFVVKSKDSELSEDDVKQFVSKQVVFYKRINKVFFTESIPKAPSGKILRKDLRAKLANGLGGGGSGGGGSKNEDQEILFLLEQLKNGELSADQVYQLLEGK

B1: MlnB COM^D-CNL (protein)
chain: KNEDQEILFLLEQLKNGELSADQVYQLLEGKGGGSMAQSISLSLPQSTTPSKGVRLKIAALLKTIGTLILLLIALPLNALIVLISLMCRPFTKKPAVATHPQNILVSGGKMTKALQLARSFHAAGHRVILIEGHKYWLSGHRFSNSVSRFYTVPAPQDDPEGYTQALLEIVKREKIDVYVPVCSPVASYYDSLAKSALSEYCEVFHFDADITKMLDDKFAFTDRARSLGLSAPKSFKITDPEQVINFDFSKETRKYILKSISYDSVRRLNLTKLPCDTPEETAAFVKSLPISPEKPWIMQEFIPGKELCTHSTVRDGELRLHCCSNSSAFQINYENVENPQIQEWVQHFVKSLRLTGQISLDFIQAEDGTAYAIECNPRTHSAITMFYNHPGVAEAYLGKTPLAAPLEPLADSKPTYWIYHEIWRLTGIRSGQQLQTWFGRLVRGTDAIYRLDDPIPFLTLHHWQITLLLLQNLQRLKGWVKIDFNIGKLVELGGD
B1 was tested, and the “shinorine production in Saccharomyces cerevisiae (HPLC), against free or singly fused CNL and AAL” value (MlnC COM^A-AAL) was “shinorine production increased by about 1.3 times”.

B2: MlnC COM^A-CHS (enzyme)
chain: MQIKQILSLIEEQQMSPDAGLELIRTYRKEQMGGGGSGGGGSGGGGSMVTVEEYRKAQRAEGPATVMAIGTATPSNCVDQSTYPDFYFRITNSEHKTDLKEKFKRMCEKSMIKKRYMHLTEEILKENPSMCEYMAPSLDARQDIVVVEVPKLGKEAAQKAIKEWGQPKSKITHLVFCTTSGVDMPGCDYQLTKLLGLRPSVKRLMMYQQGCFAGGTVLRLAKDLAENNKGARVLVVCSEITAVTFRGPNDTHLDSLVGQALFGDGAGAIIIGSDPIPGVERPLFELVSAAQTLLPDSHGAIDGHLREVGLTFHLLKDVPGLISKNIEKSLEEAFKPLGISDWNSLFWIAHPGGPAILDQVEIKLGLKPEKLKATRNVLSNYGNMSSACVLFILDEMRKASAKEGLGTTGEGLEWGVLFGFGPGLTVETVVLHSVAT
notes: Unlabelled protein as used in SEC/native PAGE and in the two-step naringenin reaction; also called chalcone synthase fused to MlnC COM acceptor domain; not shown: C-terminal His-tag from pET21c vector
B2: binds (4CL-MlnB COM^D).

B3: Cy5-labeled MlnC COM^A-CHS (enzyme)
chain: MQIKQILSLIEEQQMSPDAGLELIRTYRKEQMGGGGSGGGGSGGGGSMVTVEEYRKAQRAEGPATVMAIGTATPSNCVDQSTYPDFYFRITNSEHKTDLKEKFKRMCEKSMIKKRYMHLTEEILKENPSMCEYMAPSLDARQDIVVVEVPKLGKEAAQKAIKEWGQPKSKITHLVFCTTSGVDMPGCDYQLTKLLGLRPSVKRLMMYQQGCFAGGTVLRLAKDLAENNKGARVLVVCSEITAVTFRGPNDTHLDSLVGQALFGDGAGAIIIGSDPIPGVERPLFELVSAAQTLLPDSHGAIDGHLREVGLTFHLLKDVPGLISKNIEKSLEEAFKPLGISDWNSLFWIAHPGGPAILDQVEIKLGLKPEKLKATRNVLSNYGNMSSACVLFILDEMRKASAKEGLGTTGEGLEWGVLFGFGPGLTVETVVLHSVAT
modifications: Cy5-NHS ester linked to naturally occurring lysine residues (positions not stated)
notes: Dye-labelled form used in the three-channel FRET analysis; also called MlnC COMA-CHS labeled with Cy5; not shown: C-terminal His-tag from pET21c vector
B3: binds [1].
